Measured values reported in publication PMC7615185, “Structural basis for ion selectivity in potassium-selective channelrhodopsins” (Cell, 2023).
Values belong to the compound of their own block, whether it stands above or below them.

How the values were obtained:
HcKCR2 = target: T1, HcKCR2 (Hyphochytrium catenoides, UniProt Z9CM73ZIR3); assay: cryo-EM structure; type: binding; conditions: dark state, nanodisc, pH 7.5; covalent Schiff base to K233; 6-s-cis conformer
T1 construct: M1-D265; MSP1E3D1/SoyPC nanodisc; residues 2-260 modelled (initiator Met lost); homotrimer
T1 sequence (Z9CM73ZIR3 1-265): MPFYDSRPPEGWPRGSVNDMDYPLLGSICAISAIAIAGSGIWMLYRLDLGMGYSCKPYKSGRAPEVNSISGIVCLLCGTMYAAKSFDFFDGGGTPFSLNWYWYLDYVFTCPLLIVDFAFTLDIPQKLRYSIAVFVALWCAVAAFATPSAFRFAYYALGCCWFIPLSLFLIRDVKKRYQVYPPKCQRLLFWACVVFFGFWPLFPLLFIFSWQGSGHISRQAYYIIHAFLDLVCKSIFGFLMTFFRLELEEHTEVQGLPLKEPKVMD

[1] = target: HcKCR1 WT (K+-selective channelrhodopsin 1 from Hyphochytrium catenoides) (Hyphochytrium catenoides); assay: cryo-EM structure; dark state; protein in MSP1E3D1/SoyPC nanodiscs, 20 mM HEPES-NaOH pH 7.5, 100 mM NaCl; C3 symmetry
[2] = target: HcKCR2 WT (K+-selective channelrhodopsin 2 from Hyphochytrium catenoides) (Hyphochytrium catenoides); assay: as above

Compound: CC1=C(/C=C/C(C)=C/C=C/C(C)=C/C=O)C(C)(C)CCC1 [all-trans-retinal]
cryo-EM structure (HcKCR2): HcKCR2 thus represents the initial naturally occurring microbial rhodopsin with experimentally demonstrated 6-s-cis-retinal configuration

stoichiometry N [1]: 3
Compound: HcKCR1 WT (K+-selective channelrhodopsin 1 from Hyphochytrium catenoides) (domain or fragment)

stoichiometry N [2]: 3
Compound: HcKCR2 WT (K+-selective channelrhodopsin 2 from Hyphochytrium catenoides) (domain or fragment)
